According to paper PMC3836750, “A Novel Antibody Humanization Method Based on Epitopes Scanning and Molecular Dynamics Simulation” (PLoS ONE, 2013):

Columns and labels:
[1] = molecular target: refined 1-17-2 antibody (humanized antibody with back mutation of the 5 key residues L38, L43, L45, L71 and H77) (rat | human); experiment: SPR; BIACORE T200, CM5 chip; antibody captured on immobilized anti-human IgG (Fc) (human antibody capture kit); DEC-S solution passed through, 6 concentrations; regeneration 3 M magnesium chloride; KD = kd/ka
DEC-205 protein (DEC-S) [2] = molecular target: T1, DEC-205 protein (DEC-S) (Homo sapiens, UniProt O60449); experiment: SPR; BIACORE T200, CM5 chip; murine (rat) antibody immobilized by amine coupling; DEC-205 protein 500 to 15.625 nM, 240 sec injection at 30 µl/min, 600 sec dissociation; regeneration Glycine-HCl pH 2.5; KD = kd/ka; conditions: both partners purified
T1 construct: DEC-205 protein in solution (DEC-S) used as SPR analyte; DEC-S is probably a soluble form of DEC-205
T1 sequence (O60449 28-1722): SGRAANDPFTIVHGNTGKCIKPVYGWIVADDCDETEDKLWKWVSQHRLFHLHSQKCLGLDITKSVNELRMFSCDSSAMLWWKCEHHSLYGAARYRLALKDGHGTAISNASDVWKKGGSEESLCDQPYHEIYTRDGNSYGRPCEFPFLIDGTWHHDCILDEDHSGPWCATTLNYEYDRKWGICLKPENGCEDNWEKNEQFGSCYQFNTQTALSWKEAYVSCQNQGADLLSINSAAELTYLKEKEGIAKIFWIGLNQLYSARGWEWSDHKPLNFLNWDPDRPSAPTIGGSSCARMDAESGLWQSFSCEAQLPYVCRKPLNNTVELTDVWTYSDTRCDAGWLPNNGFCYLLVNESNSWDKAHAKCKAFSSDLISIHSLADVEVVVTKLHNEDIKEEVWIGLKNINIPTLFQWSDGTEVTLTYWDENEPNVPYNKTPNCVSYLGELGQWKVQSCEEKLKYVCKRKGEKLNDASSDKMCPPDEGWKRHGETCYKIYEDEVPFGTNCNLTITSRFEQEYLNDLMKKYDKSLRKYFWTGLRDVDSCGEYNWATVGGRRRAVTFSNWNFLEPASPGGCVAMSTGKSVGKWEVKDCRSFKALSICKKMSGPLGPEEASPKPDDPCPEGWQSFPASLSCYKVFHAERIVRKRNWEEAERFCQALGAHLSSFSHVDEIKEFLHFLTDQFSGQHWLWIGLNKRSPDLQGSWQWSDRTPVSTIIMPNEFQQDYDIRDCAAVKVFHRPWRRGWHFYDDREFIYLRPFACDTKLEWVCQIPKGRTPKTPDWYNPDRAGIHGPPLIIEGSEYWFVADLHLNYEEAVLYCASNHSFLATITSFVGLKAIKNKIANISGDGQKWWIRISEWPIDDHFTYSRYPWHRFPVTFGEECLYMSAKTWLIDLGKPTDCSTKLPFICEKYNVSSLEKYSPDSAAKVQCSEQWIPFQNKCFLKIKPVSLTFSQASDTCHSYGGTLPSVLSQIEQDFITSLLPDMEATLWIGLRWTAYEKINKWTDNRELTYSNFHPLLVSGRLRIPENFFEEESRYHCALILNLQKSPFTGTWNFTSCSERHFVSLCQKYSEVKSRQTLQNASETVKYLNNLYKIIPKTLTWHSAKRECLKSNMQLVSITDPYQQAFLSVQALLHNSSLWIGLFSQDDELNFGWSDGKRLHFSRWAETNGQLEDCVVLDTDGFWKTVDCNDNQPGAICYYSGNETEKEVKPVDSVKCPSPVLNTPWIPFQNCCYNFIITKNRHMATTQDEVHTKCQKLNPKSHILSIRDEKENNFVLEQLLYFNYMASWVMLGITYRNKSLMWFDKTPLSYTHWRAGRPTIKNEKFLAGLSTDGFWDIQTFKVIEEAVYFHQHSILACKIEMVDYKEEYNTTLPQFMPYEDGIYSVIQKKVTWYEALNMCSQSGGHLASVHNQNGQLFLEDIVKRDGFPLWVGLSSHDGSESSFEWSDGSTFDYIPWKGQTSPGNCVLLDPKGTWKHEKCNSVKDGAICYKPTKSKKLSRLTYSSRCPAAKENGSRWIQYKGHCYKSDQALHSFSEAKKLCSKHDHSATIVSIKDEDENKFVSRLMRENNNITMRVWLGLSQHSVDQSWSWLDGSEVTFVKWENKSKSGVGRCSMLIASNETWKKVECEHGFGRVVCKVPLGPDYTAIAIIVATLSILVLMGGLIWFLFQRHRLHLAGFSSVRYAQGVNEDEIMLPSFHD

DEC-205 protein (DEC-S) [3] = molecular target: T1, DEC-205 protein (DEC-S); experiment: SPR; BIACORE T200, CM5 chip; antibody captured on immobilized anti-human IgG (Fc) (human antibody capture kit); DEC-S solution passed through, 6 concentrations; regeneration 3 M magnesium chloride; KD = kd/ka; conditions: both partners purified

| Molecule | Kd (DEC-205 protein (DEC-S) [3]) | koff (DEC-205 protein (DEC-S) [3]) | kon (DEC-205 protein (DEC-S) [3]) | also measured |
| --- | --- | --- | --- | --- |
| DEC-205 protein (DEC-S) (from UniProt O60449 28-1722) (receptor) | – | – | – | Kd [1]: 16.7 nM; koff [1]: 0.000137 s⁻¹; kon [1]: 8220 M⁻¹ s⁻¹ |
| 1-17-2 rat anti-human DEC-205 monoclonal antibody (antibody, V domains shown, VH of rat antibody 1-17-2; rat IgG1 heavy chain constant region (isotype IgG1 stated); VL of rat antibody 1-17-2; rat kappa light chain constant region (isotype kappa stated); Rat IgG1, kappa; also called Rat Ab; rat mAb; source: expressed in vitro and purified; hybridoma 1-17-2 from rats immunized with DEC-1-YB2/0 cells) VH: EVQLVESGGGLVQPGRSLKLSCAASGFTFSHYYMAWVRQAPTKGLEWVAYISTDGGTTYYRDSVKGRFTISRDNARSTLYLQVDSLRSEDTATYYCTTGQPGYNLDYFDYWGQGVMVTVSS VL: DIQMTQSPASLSASLEEIVTITCQASQDIGYWLAWYQLKPGKSPQLLIYGATSLADGVSSRFSGSRSGTQYSLKISRLQVEDIGIYYCQQASSVPWTFGGGTKLELK | – | – | – | Kd (DEC-205 protein (DEC-S) [2]): 29.7 nM; koff (DEC-205 protein (DEC-S) [2]): 0.000185 s⁻¹; kon (DEC-205 protein (DEC-S) [2]): 6290 M⁻¹ s⁻¹ |
| chimeric 1-17-2 antibody (variable regions of 1-17-2 with constant regions of a human antibody) (antibody, V domains shown, as the VH of m1; human heavy chain constant region contained in the MH vector; as the VL of m1; human light chain constant region contained in the MK vector; Captured by anti-human IgG (Fc) in SPR, so a human IgG; Vectors MH and MK from Dr. Linqi Zhang; also called Chi Ab; chimeric antibody) VH: EVQLVESGGGLVQPGRSLKLSCAASGFTFSHYYMAWVRQAPTKGLEWVAYISTDGGTTYYRDSVKGRFTISRDNARSTLYLQVDSLRSEDTATYYCTTGQPGYNLDYFDYWGQGVMVTVSS VL: DIQMTQSPASLSASLEEIVTITCQASQDIGYWLAWYQLKPGKSPQLLIYGATSLADGVSSRFSGSRSGTQYSLKISRLQVEDIGIYYCQQASSVPWTFGGGTKLELK | 35.4 nM | 0.000273 s⁻¹ | 8040 M⁻¹ s⁻¹ | – |
| humanized 1-17-2 antibody (30 mutations based on the chimeric antibody) (antibody, V domains shown, human heavy chain constant region contained in the MH vector; human light chain constant region contained in the MK vector; Humanized VL and VH fragments were synthesized; also called Hu Ab; humanized antibody) VH: EVQLVESGGGLVQPGRSLRLSCAASGFTFSHYYMAWVRQAPGKGLEWVAYISTDGGTTYYRDSVKGRFTISRDNSKNTLYLQMNSLRSEDTAVYYCTTGQPGYNLDYFDYWGQGTLVTVSS VL: DIQMTQSPSSLSASVGDRVTITCQASQDIGYWLAWYQQKPGKAPKLLIYGATSLADGVPSRFSGSGSGTDFTLTISSLQPEDFATYYCQQASSVPWTFGGGTKLEIK | 373 nM | 0.00105 s⁻¹ | 2930 M⁻¹ s⁻¹ | – |
